Measurements: patent publication US20090220532A1 (PROYECTO DE BIOMEDICINA CIMA S L, published 2009)

Molecular target: human TLR4 (Toll-like receptor 4) on HEK293 cells expressing human TLR4-MD2-CD14 (human, UniProt O00206 24-839)
Assay: cell-based or functional assay

human TLR4 (Toll-like receptor 4) on HEK293 cells expressing human TLR4-MD2-CD14, sequence (O00206 24-839): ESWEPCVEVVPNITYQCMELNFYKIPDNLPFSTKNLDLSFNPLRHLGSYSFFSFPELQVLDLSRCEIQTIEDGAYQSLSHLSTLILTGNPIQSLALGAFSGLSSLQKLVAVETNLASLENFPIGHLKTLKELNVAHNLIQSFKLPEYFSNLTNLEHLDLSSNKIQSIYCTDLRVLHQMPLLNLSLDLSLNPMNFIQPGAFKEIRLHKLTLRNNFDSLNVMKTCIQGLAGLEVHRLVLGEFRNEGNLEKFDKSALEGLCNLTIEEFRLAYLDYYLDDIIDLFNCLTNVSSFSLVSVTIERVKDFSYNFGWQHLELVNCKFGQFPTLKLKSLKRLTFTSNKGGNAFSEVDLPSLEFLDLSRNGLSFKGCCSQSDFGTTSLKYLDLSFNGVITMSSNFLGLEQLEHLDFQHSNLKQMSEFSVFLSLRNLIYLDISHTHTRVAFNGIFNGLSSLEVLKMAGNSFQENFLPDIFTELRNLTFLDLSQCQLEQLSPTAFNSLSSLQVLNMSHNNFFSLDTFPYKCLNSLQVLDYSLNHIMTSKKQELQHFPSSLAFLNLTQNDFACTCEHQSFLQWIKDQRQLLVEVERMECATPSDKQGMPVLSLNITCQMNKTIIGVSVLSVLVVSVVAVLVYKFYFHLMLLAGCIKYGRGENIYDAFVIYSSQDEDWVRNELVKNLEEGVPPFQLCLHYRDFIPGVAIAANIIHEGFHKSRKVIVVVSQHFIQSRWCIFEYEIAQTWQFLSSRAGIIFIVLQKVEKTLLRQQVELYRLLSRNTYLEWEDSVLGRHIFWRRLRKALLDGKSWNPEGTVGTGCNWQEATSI

fold NF-κB induction factor (SEAP reporter under NF-κB-inducible ELAM-1 promoter; OD of HEK293/TLR4-MD2-CD14 supernatants divided by OD of HEK293/LacZ supernatants), 100 nM EDA-SIINFEKL: 7 fold
B1: EDA-SIINFEKL-6xHis fusion protein (recombinant proteinaceous vector) (ligand)
chain: MNIDRPKGLAFTDVDVDSIKIAWESPQGQVSRYRVTYSSPEDGIRELFPAPDGEDDTAELQGLRPGSEYTVSVVALHDDMESQPLIGIQSTQLESIINFEKLTEWAAALEHHHHHH
